# Residue numbers refer to the chain shown, from its start.
# T1: hIL-6R on hIL-6-responsive human cells (XG-1 myeloma line, HepG2 hepatoma line) (human, UniProt P08887 20-468)
# T1 sequence (looked up): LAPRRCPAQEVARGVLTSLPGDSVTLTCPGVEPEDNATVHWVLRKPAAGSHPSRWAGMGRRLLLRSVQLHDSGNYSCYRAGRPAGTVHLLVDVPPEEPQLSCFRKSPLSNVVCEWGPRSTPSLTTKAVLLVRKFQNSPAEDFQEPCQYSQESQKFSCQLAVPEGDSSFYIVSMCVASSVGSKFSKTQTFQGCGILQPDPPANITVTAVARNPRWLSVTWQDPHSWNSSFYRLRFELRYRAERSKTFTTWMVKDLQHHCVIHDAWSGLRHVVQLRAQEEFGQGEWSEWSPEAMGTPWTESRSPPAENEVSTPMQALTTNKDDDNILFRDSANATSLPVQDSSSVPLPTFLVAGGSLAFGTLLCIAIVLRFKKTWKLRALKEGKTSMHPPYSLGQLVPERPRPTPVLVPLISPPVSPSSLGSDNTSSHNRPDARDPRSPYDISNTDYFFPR
# T2: recombinant hIL-6R protein, monomeric form (human, UniProt P08887 20-358)
# T2 construct: also called monomeric hIL-6R; Human IL6R
# T2 sequence: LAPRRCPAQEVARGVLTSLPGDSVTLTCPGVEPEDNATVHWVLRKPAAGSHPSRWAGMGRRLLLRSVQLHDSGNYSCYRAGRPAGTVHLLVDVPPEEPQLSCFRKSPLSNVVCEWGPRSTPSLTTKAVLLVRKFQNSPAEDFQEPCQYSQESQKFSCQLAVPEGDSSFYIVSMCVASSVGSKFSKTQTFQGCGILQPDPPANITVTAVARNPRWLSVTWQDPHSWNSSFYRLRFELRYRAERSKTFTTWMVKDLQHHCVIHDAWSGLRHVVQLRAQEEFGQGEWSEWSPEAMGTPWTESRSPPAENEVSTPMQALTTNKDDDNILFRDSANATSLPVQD
# T3: hIL-6R recombinant protein (plate-coated, Example 5) (human, UniProt P08887 20-358, limits assumed)
# T3 construct: also called antigen
# T3 sequence: T2 sequence
# T4: hIL-6R-hFc (human, UniProt P08887 20-358)
# T4 construct: also called dimeric hIL-6R; Dimer; not shown: human Fc (hFc)
# T4 sequence: T2 sequence
# B1: VV3D8-4 (antibody, V domains shown)
# VH: EVQLVESGGGLVQPGRSLRLSCAASGFTFDDYALHWVRQAPGKGLEWVSGISWNSGRIGYADSVKGRFTISRDNAKNSLFLQMNSLRAEDTALYYCAKGRDAFDIWGQGTLVTVSS
# VL: DIQMTQSPSSVSASVGDRVTITCRASQGISSWLAWYQQKPGKAPKLLIYAASSLQSGVPSRFSGSGSGTDFTLTISSLQPEDFATYYCQQANSFPYTFGQGTKLEIK
# notes: Human variable regions with mouse constant region
# B2: VV6C10-1 (antibody, V domains shown)
# VH: B1 VH with I51V, S55G, A88V
# VL: EIVLTQSPATLSLSPGERATLSCRASQSVSSYLAWYQQKPGQAPRLLIYDASNRATGIPARFSGSGSGTDFTLTISSLEPEDFAFYYCQQRNNRPPFTFGPGTKVDVR
# notes: as for B1
# B3: VQ8A9-6 hIgG1 (antibody, V domains shown)
# VH: EVQLVESGGNLVQPGRSLRLSCAASGFIFDDYAMHWVRQAPGKGLEWVSGISWNSGSIGYADSVKGRFTISRDNAKNSLYLQMNSLRAEDTALYYCAKDGGSSWLPFVYYYGMDVWGQGTTVTVSS
# VL: EIVMTQSPATLSVSPGERATLSCRASQSISSNFAWYQQKPGQAPRLLIYGASTRATGIPARFSGSGSGTDFTLTISSLQSEDFAVYYCQQYSSWPPYTFGQGTKLEIK
# notes: Human IgG1 constant region
# B4: VQ8A9-6 hIgG4 (antibody, V domains shown)
# VH: B3 VH
# VL: B3 VL
# notes: Human IgG4 constant region
# B5: VQ1G4-21 hIgG4 (antibody, V domains shown)
# VH: QVQLVQSGAEVKEPGASVKVSCKASGYTFTSYDIIWVRQATGQGLEWMGWMNPNSGNTGYTQNLQGRVTLTRNTSITTVYMELSSLSSEDTAVYYCARDYSSHYYGLDVWGQGTTVTVSS
# VL: DIQLTQSPSFLSTSIGDRVTITCWASQDISNYLAWYQQKPGKAPKLLIFVASTLQSGVPSRFSGSGSGTEFTLTISSLQPEDFATYYCQQFNSYPLTFGGGTKVEIK
# notes: Human IgG4 constant region
# B6: VQ1G4-21 hIgG1 (antibody, V domains shown)
# VH: B5 VH
# VL: B5 VL
# notes: Human IgG1 constant region
# B7: VQ8F11-21 hIgG4 (antibody, V domains shown)
# VH: B1 VH with G26R, L34M, K76E, S85G, A102S, L111M
# VL: B1 VL with A50G, Q55E, T85S
# notes: Human IgG4 (wild-type) constant region
# B8: VV6A9-5 hIgG1 (antibody, V domains shown)
# VH: B1 VH with I51V, S55G, A88V
# VL: B1 VL with Q90H, N92Y
# notes: Human IgG1 constant region
# B9: VV6A9-5 hIgG4 (antibody, V domains shown)
# VH: B1 VH with I51V, S55G, A88V
# VL: B1 VL with Q90H, N92Y
# notes: Human IgG4 constant region
# B10: VQ8F11-21 hIgG1 (antibody, V domains shown)
# VH: B1 VH with G26R, L34M, K76E, S85G, A102S, L111M
# VL: B1 VL with A50G, Q55E, T85S
# B11: VV6F12-11 (antibody, V domains shown)
# VH: B5 VH with V20I, N57D, T58R, N73D, T77S, S87R, S102N
# VL: B5 VL with T13A, I15V, K107R
# notes: as for B1
# B12: VV7G4-10 (antibody, V domains shown)
# VH: QVQLVQSGAEVKKPGASVKVSCKASGYTFTSYGISWVRQAPGQGLEWMGWISAYNDDTNYAQKFQGRVTMTTDTSTSTAYMELRSLRSDDTAVYYCAREAQLVLYYYYGMDVWGQGTTVTVSS
# VL: EIVLTQSPATLSLSPGERATLSCRASQSVSSFLAWNQQKPGQAPRLLIYDASNRATGIPARFSGSGSGTDFTLTISSLEPEDFAVYYCQQRSNWPYIFGQGTKLEIK
# notes: as for B1
# B13: VV9A6-11 (antibody, V domains shown)
# VH: B12 VH
# VL: B12 VL
# notes: as for B1
# B14: VV6C10-3 (antibody, V domains shown)
# VH: QVQLVQSGAEVKKPGASVKVSCKASGFNFFHYGITWVRQAPGQGLEWMGWISTYNGDTIYAQKVQGRVTMTTDTATSTAYMELRSLRSDDTAVYYCARSEQQVDYYFYGMDVWGQGTTVTVSS
# VL: B2 VL
# notes: as for B1
# Biological target: T1, hIL-6R on hIL-6-responsive human cells …
# Assay: cell-based or functional assay
row,XG-1 cell proliferation Inhibition IC50 [nM],Binder
1,> 100,B1
2,> 6.9,B2

# Biological target: T1, hIL-6R on hIL-6-responsive human cells …
# Assay: cell-based or functional assay
# Remark: another data set of the same source
row,HepG2/STAT3 luciferase assay IC50 [nM],Binder
1,0.13,B3
2,0.185,B4
3,0.528,B5
4,0.767,B6
5,0.228,B7
6,0.204,B8
7,0.343,B9
8,0.15,B10

# Biological target: T2, recombinant hIL-6R protein, monomeric …
# Assay: Kinexa solution-phase competition immunoassay, monomeric hIL-6R
row,Kd [nM],Binder
1,1.91,B1
2,2.05,B2

# Biological target: T3, hIL-6R recombinant protein …
# Assay: SPR (BIAcore) competition on hIL-6R; competitor: control antibody
row,% reduction of binding by control antibody [%],Binder
1,97,B1
2,90,B2

# Biological target: T4, hIL-6R-hFc
# Assay: SPR (BIAcore), antibody captured on anti-mouse IgG surface, dimeric hIL-6R
row,Kd [nM],Binder
1,0.172,B1
2,0.032,B2

# Biological target: T2, recombinant hIL-6R protein, monomeric …
# Assay: SPR (BIAcore), antibody captured on anti-mouse IgG surface, monomeric hIL-6R
row,Kd [nM],Binder
1,2.41,B1
2,0.267,B2

# Biological target: T2, recombinant hIL-6R protein, monomeric …
# Assay: SPR (BIAcore), antibody captured on goat anti-human Fc, monomeric hIL-6R 1.56-12.5 nM
Kd [nM],koff [s⁻¹],kon [M⁻¹ s⁻¹],Binder
0.238,0.00026,1.09e+06,B3
0.201,0.000235,1.17e+06,B4
0.336,9.18e-05,273000,B5
0.237,7.92e-05,334000,B6
0.073,5.22e-05,717000,B7
0.125,8.87e-05,712000,B8
0.135,7.64e-05,567000,B9
0.073,4.54e-05,622000,B10

# Biological target: T4, hIL-6R-hFc
# Assay: SPR (BIAcore): hIL-6R-hFc captured, antibody injected, then 50 nM hIL-6; percent reduction in hIL-6 binding
row,hIL6/hIL6R Binding Inhibition (%),Binder
1,93,B1
2,61,B2

# Biological target: T4, hIL-6R-hFc
# Assay: blocking ELISA: 100 pM hIL-6R-hFc premixed with varied antibody, free hIL-6R-hFc captured on hIL-6-coated plate
row,IC50 [nM],Binder
1,2.2,B11
2,13,B12
3,0.5,B13
4,0.61,B1
5,4.6,B2
6,0.06,B14

# Biological target: T3, hIL-6R recombinant protein …
# Assay: competition ELISA on hIL-6R-coated plate presaturated with competitor control antibody; test antibody 50 ng/ml
row,% reduction of binding by control antibody [%],Binder
1,3,B11
2,26,B12
3,18,B13
4,84,B1
5,80,B2
6,1,B14

# Biological target: T4, hIL-6R-hFc
# Assay: competition ELISA: antibody premixed with serial dilutions of hIL-6R-hFc, free antibody detected on hIL-6R-hFc-coated plate
row,IC50 [nM],Binder
1,0.033,B11
2,1.98,B12
3,0.347,B13
4,0.013,B1
5,0.01,B2
6,0.009,B14

# From US20070280945A1 (Regeneron, published 2007)
